From patent US20250346673A1 (DUALITY BIOLOGICS SUZHOU, published 2025) come the findings set out here.

Residue numbers refer to the chain shown, from its start.

For assay [1], the target named is T1, cynomolgus BDCA2 (cynomolgus monkey, UniProt A0A2K5UWP4 1-212).
T1 construct: whole, on cells; also called Cyno BDCA2; cynoBDCA2
T1 sequence: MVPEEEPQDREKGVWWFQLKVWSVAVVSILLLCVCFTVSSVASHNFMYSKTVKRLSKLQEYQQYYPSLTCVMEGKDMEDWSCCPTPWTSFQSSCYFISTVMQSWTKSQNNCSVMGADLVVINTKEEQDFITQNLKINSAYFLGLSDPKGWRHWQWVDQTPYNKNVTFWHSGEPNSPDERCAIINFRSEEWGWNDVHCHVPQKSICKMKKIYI
As to the kind of experiment: FACS on 293F-cynoBDCA2 cells; EC50 table under the plot, unit from the x axis (nM) [continued) d.]. Here is the method:
(§1) The cells were recovered and resuspended to 2×10⁶/mL with FACS buffer (PBS+2% FBS). The cells were added to 3799 cell plates (Corning) at 100 μL/well, and the supernatant was discarded after centrifugation at 300 g. The antibodies were serially diluted with FACS buffer (Id.), the diluted antibodies were added to centrifuged cells and the cells were resuspended. The cells were incubated at 4° C. for 1 h. The incubated cells were then centrifuged at […] for 5 min and washed twice with FACS buffer. 100 μL Donkey anti-Mouse IgG (H+L) Highly Cross-Adsorbed Secondary Antibody-Alexa Fluor 488 (Invitrogen, A21202; 1:1000) secondary antibody was added to the cells, which were washed twice with FACS buffer after incubation at 4° C. for 1 h, resuspended with PBS, analyzed with FACS (BD FACS CantoTM II) instrument. The curve was fitted with GraphPad Prism6, and EC₅₀ values were calculated.

Assay [2] deals with T2, human BDCA2 (human, UniProt Q8WTT0 1-213).
T2 construct: whole, on cells; also called hBDCA2; Blood dendritic cell antigen 2
T2 sequence (looked up): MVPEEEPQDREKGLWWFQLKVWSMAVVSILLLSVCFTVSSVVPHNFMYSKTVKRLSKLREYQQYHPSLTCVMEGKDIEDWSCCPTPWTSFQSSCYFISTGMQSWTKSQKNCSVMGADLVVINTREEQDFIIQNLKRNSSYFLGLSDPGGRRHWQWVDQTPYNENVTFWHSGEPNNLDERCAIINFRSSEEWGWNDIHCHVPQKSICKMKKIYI
As to the kind of experiment: FACS on CHOK1-hBDCA2 cells; EC50 table under the plot, unit from the x axis (nM) [continued) d.]. On the procedure: as §1

Assay [3] has as its target T3, Human BDCA2 Fc recombinant protein (human).
T3 construct: Human IgG1 Fc N-terminal of the BDCA2 extracellular domain (Asn45-Ile213), fused by a linker; also called BDCA2-Fc protein
As to the kind of experiment: ELISA, coated humanBDCA2 Fc. Here is the method: HumanBDCA2 Fc protein or cynoBDCA2 His protein was diluted with PBS to 1 μg/mL and added to ELISA microplates at 100 μL/well and incubated at 4° C. overnight. The plates were blocked with ELISA blocking solution (PBS phosphate buffer with 1% BSA, pH 7.4, the percentages representing mass percentages) at 37° C. for 2 hours. Sequential 10-fold serial dilutions of antibodies were added at 8 concentrations (0.0001 nM-100 nM, including 0 point control) in total at 100 μL/well. The plates were incubated at 37° C. for 1 hour, then washed 3 times and after anti-mouse IgG (Fab specific)-HRP (Sigma, A3682; 1: 5000 dilution) secondary antibodies were added at 100 μL/well, were incubated at 37° C. for 1 h. The plates were washed 3 times, TMB development fluid (EL0009, Huzhou Ying Chuang Biotechnology) was added at 100 μL/well and 50 μL 1N hydrochloric acid was added after incubation at 37° C. for 10 min to stop the development reaction. OD450 nm values were read with ELISA plate reader and the curve was fitted with GraphPad Prism6, and EC₅₀ values were calculated.

The target of assay [4] is T2, human BDCA2. The assay can be described thus: FACS on CHOK1-hBDCA2 cells; EC50 table under the plot, unit from the x axis (nM). On the procedure:
as §1

For assay [5], the target named is T2, human BDCA2. As to the kind of experiment: cell-based or functional assay.
The target in assay [6] is T1, cynomolgus BDCA2. As to the kind of experiment: FACS on 293F-cynoBDCA2 cells; EC50 table under the plot, unit from the x axis (nM). Here is the method: as §1
Assay [7] deals with T4, human FcγRIIA (R167) (human, UniProt P12318 36-218, limits assumed, biotinylated (site not stated)).
T4 construct: also called Fe γ RIIA(R167); Fcγ RIJA (R167)
T4 sequence (looked up): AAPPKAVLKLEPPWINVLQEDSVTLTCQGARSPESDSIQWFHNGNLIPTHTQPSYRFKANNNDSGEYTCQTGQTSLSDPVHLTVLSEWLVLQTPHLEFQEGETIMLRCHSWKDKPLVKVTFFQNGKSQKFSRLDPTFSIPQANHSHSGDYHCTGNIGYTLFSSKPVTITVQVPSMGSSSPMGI
As to the kind of experiment: SPR, FcγRIIA (R167); against the wild-type Fc antibody Hu033-03. On the procedure:
(§2) Antibody kinetics or affinity parameters were measured using BIAcore 8K and freshly fixed biotinylated human Fe γ RIIA(R167)/Fc γ RIIA (H167) SA chips. The experiment was run at 25° C. with a running buffer of 1×HBS-EP+(10 mM HEPES pH 7.4, 150 mM NaCl, 3 mM EDTA, 0.05% Surfactant P20). […] The binding and dissociation times of the antibody were 60 and 90 seconds, respectively. Two zero concentration samples are used to remove background signals. The sample was injected in a multi cycle manner, the analyte can be fully dissociated from the chip surface at the end of each cycle, and no regeneration step was applied. Data analysis was perform using Biacore Insight Evaluation Software (Version 2.0.15.12933). After deducting the reference channel (flow cell 1) and two zero concentration signals, affinity analysis was performed using a 1:1 binding model or steady-state model for curve fitting and calculation of kinetic parameters.

In assay [8] the target is T4, human FcγRIIA (R167). As to the kind of experiment: SPR (BIAcore 8K), biotinylated FcγRIIA (R167) on SA chip, antibody as analyte, 1:1 binding. On the procedure:
as §2

The target in assay [9] is T5, human FcγRIIA (H167) (human, UniProt P12318 36-218, limits assumed, biotinylated (site not stated)).
T5 construct: also called Fey RIIA (H167)
T5 sequence (looked up): T4 sequence (looked up) with R132H
The assay can be described thus: SPR (BIAcore 8K), biotinylated FcγRIIA (H167) on SA chip, antibody as analyte, 1:1 binding. Here is the method:
as §2

In assay [10] the target is T5, human FcγRIIA (H167). As to the kind of experiment: SPR, FcγRIIA (H167); against the wild-type Fc antibody Hu033-03. Here is the method: as §2

B1: mAb026 (antibody, V domains shown)
VH: DVQLQESGPGLVKPSQSLSLTCSVTGYSITSAYYWNWIRQFPGHKLEWMGYISYDGSNNYNPSLKNRISITRDTSKNQFFLKLNSVTTEDTATYHCARGVDYPNAIDWWGQGTSLTVSS
VL: DIVLTQSPTSLTVSLGQRATISCRASESVSIHGTHLMHWYQQKPGQPPKLLIYVASYLESGVPARFSGSGSETDFSLNIHPVEEEDAATYFCQQSFEDPWTFGGGTKLEIK
notes: Mouse hybridoma antibody
As for B1, the EC50 in assay [1] is 2.49 nM; in assay [2] it was 0.773 nM; in assay [3] it was < 0.3 nM.

B2: mAb005 (antibody, V domains shown)
VH: QVQLKQSGPGLVQPSQSLSITCTVSGFSLTNYGVHWVRQSPGKGLEWLGVIWSGESTDYDAAFISRLSISKDNSKSQVFFKMNSLQADDSAIYYCARRRSHYYGYVMDYWGQGTSVTVSS
VL: DIVLTQSPASLAVSLGQRATISCKASQSIDYDGIGYLNWYQHKPGQPPKLLIYAASNLESGIPARFSGSGSGTDFTLNIHPVEEEDAATYYCQQSNEDPPTFGSGTKLEIK
notes: Mouse hybridoma antibody
Consider B2, for which the half-maximal effective concentration (EC50) was found to be 1.83 nM in [4] and 2.11 nM in assay [6]. Also, the “IC50 for inhibiting cytokine IFNα release, CpG-A stimulated human PBMC” value in assay [5] came to 0.0867 nM.

B3: mAb001 (antibody, V domains shown)
VH: QIQLVQSGPELKKPGETVKISCKASGYTFTDFSMHWVKQAPGKGLKWMGWINTETGEPTYADDFKGRFAFSLETSASTAFLQINNLKNDDTTTYFCSRGGDGHPYWYFAVWGAGTTVTVSS
VL: DIVLTQSPASLAVSLGQRATISCRASQSVSTSSYSYMHWYQQKPGQPPKLLIKYASILESGVPARFSGSGSGTDFTLNIHPVEEEDTATYYCQHSWEIPFTFGSGTKLEIK
notes: Mouse hybridoma antibody
Take B3: the EC50 is 1.37 nM in assay [4] and 6.08 nM in assay [6].

B4: mAb002 (antibody, V domains shown)
VH: QIQLVQSGPELKKPGETVKISCRASGYSFTDYSMHWVKQAPGKGLKWVGWINTETGEPTYADDFKGRFALSLETSATSAYLQINNLKNEDTATYFCARGGDGFPYWYFNVWGAGTTVTVSS
VL: B3 VL with A9T, A19T, T20N, Y34N, M37I, I57N, E59D, A88S
notes: Mouse hybridoma antibody
Consider B4, for which the EC50 in assay [4] came out at 1.89 nM; in assay [6] it was 7.05 nM.

B5: Hu033-03-T1 (antibody, human IgG1, kappa)
heavy: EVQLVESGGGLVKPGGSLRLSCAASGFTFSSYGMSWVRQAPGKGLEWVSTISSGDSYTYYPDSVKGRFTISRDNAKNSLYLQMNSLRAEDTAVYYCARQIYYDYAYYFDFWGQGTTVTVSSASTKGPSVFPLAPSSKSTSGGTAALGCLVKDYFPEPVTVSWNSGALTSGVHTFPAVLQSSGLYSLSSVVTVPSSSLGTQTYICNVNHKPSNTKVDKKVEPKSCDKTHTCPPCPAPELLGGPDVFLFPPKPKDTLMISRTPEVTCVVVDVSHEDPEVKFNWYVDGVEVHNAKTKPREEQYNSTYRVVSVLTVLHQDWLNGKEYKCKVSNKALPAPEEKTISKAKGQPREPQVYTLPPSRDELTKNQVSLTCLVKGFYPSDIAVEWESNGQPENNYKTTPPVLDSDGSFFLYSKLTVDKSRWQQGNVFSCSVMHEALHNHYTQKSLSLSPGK
light: DIVLTQSPASLAVSPGQRATITCRASESVSFRTSHLMHWYQQKPGQPPKLLIYGASNLESGVPARFSGSGSETDFTLTINPVEAEDTANYFCQQSIEDPPTFGGGTKVEIKRTVAAPSVFIFPPSDEQLKSGTASVVCLLNNFYPREAKVQWKVDNALQSGNSQESVTEQDSKDSTYSLSSTLTLSKADYEKHKVYACEVTHQGLSSPVTKSFNRGEC
notes: Fc-mutated Hu033-03 (IgG1)
B5: in assay [7], the Multiple of affinity came to 4 fold. In [8], binding was put at a Kd of 310 nM, the koff stood at 0.232 s⁻¹ and the kon was 750000 M⁻¹ s⁻¹. Further, in assay [9], the Kd was 490 nM, the koff stood at 0.23 s⁻¹ and the kon worked out at 470000 M⁻¹ s⁻¹. Also, in [10], the Multiple of affinity was 2.3 fold.

B6: Hu033-03-T2 (antibody, human IgG1, kappa)
heavy: EVQLVESGGGLVKPGGSLRLSCAASGFTFSSYGMSWVRQAPGKGLEWVSTISSGDSYTYYPDSVKGRFTISRDNAKNSLYLQMNSLRAEDTAVYYCARQIYYDYAYYFDFWGQGTTVTVSSASTKGPSVFPLAPSSKSTSGGTAALGCLVKDYFPEPVTVSWNSGALTSGVHTFPAVLQSSGLYSLSSVVTVPSSSLGTQTYICNVNHKPSNTKVDKKVEPKSCDKTHTCPPCPAPELLAGPDVFLFPPKPKDTLMISRTPEVTCVVVDVSHEDPEVKFNWYVDGVEVHNAKTKPREEQYNSTYRVVSVLTVLHQDWLNGKEYKCKVSNKALPAPEEKTISKAKGQPREPQVYTLPPSRDELTKNQVSLTCLVKGFYPSDIAVEWESNGQPENNYKTTPPVLDSDGSFFLYSKLTVDKSRWQQGNVFSCSVMHEALHNHYTQKSLSLSPGK
light: B5 light
notes: Fc-mutated Hu033-03 (IgG1)
Take B6: the figures for the Multiple of affinity in assay [7] and in assay [10] were 13.7 fold and 10 fold, respectively. In addition, the Kd in assay [8] is 45.8 nM; in [9], 103 nM. Moreover, the off-rate constant (koff) in assay [8] was found to be 0.0899 s⁻¹; in assay [9] it was 0.0585 s⁻¹. Besides, the kon was 1.96e+06 M⁻¹ s⁻¹ in assay [8] and 570000 M⁻¹ s⁻¹ in assay [9].

B7: mAb028 (antibody, V domains shown)
VH: DVQLQESGPGLVKPSQSLSLTCSVTGYSISSGYYWNWIRQFPGNKLECMGYISYDGSNYYNPSLKNRISITRDTSKNQFFLSLNSVTTEDTATYFCVRGGDYDDGGFAYWGQGTLVTVSA
VL: DIQMTQSPASLSASVGETVTITCRASGNIHNYLAWYQQKQGKSPQLLVYNAKTLADGVPSRFSGSGSETQYSLKINSLQPEDFGNYFCQHFWIIPYTFGGGTKLEIK
notes: Mouse hybridoma antibody
With B7, the EC50 was 0.28 nM in assay [1], 0.251 nM in assay [2] and < 0.3 nM in [3].

B8: mAb032 (antibody, V domains shown)
VH: B7 VH with S30T
VL: B7 VL
notes: Mouse hybridoma antibody
Turning to B8, the EC50 was 0.359 nM in assay [1], 0.225 nM in [2] and < 0.3 nM in assay [3].
